* marks the point of attachment. X1 = 1,2‑dioleoyl‑sn‑glycero‑3‑succinate, CCCCCCCC/C=C\CCCCCCCC(=O)OC[C@H](COC(=O)CCC(=O)*)OC(=O)CCCCCCC/C=C\CCCCCCCC
How the values were obtained:
[1] = target: endothelin receptors on rat peritoneal mast cells (RBL) (rat); experiment: cell-based or functional assay
[2] = target: endothelin receptors on A549 human lung epithelial carcinoma cells (human); experiment: cell-based or functional assay

- reduction of endothelin receptors after pre-exposure to unlabeled liposomes [1]: 50%
- recovery of endothelin receptors after internalization [2]: 100%
- reduction of endothelin receptors after pre-exposure to unlabeled liposomes [2]: 50%
B1: liposome complex comprising the conjugated endothelin peptide ligand 1,2-dioleoyl-sn-glycero-3-succinate-Cys-His-Leu-Asp-Ile-Ile-Trp-COOH (peptide)
peptide: X1-CHLDIIW-OH
modifications: not fully specified; printed as 1,2-dioleoyl-sn-glycero-3-succinate-Cys-His-Leu-Asp-Ile-Ile-Trp-COOH; also: lipid conjugate incorporated in liposomes

— patent US20090220587A1
